According to patent US20250222029A1:

Target: HER2 (human epidermal growth factor receptor 2) (human) (UniProt P04626)
Assay: cell-based or functional assay

maximal cytolysis of SKOV3 tumor cells (xCELLigence, E:T 1:1): 90%
Substance: CasMab250 (H/L)-based CAR with medium spacer (IgG4 hinge & CH3 domain) and CD28-CD3ζ1XX intracellular signaling domains
